Experimental data reported in patent US20060105444A1, “O-fucosyltransferase” (Genentech, Inc., priority 1997, published 2006).

Molecular target: T1, purified O-fucosyltransferase (Cricetulus griseus, UniProt P83337)
T1 construct: endogenous in cells; host or cells: CHO cell paste (enzyme); E. coli periplasm (EGF substrates)
Experiment: Acceptor substrate specificity: fucosyltransferase assay with Factor IX EGF domain mutants
Assay type: biochemical, CHO cells (Chinese hamster ovary)
Conditions: for Fucose (cpm): human Factor IX EGF domain or mutant as acceptor substrate, 14C-fucose incorporated; for acceptor substrate for the O-fucosyltransferase (in words): recombinant Factor IX EGF domains, assay counts and LC/MS of fucosylation product
Method: A reaction volume of 50 μl contained the following ingredient: 0.1 M imidazole-HCl, pH 7.0; 50 mM MnCl2; 0.1 mM GDP-^14C-Fucose (4000-8000 cpm/nmol), 20 μM recombinant human Factor VII EGF-1 domain and about 0.01-0.1 milliunit of enzyme activity. The mixture was incubated at 37° C. for 10-20 minutes. The reaction was stopped by placing the mixture on ice, then diluting with 950 μl of 0.25 M EDTA, pH 8.0. Separation of incorporated fucose from GDP-fucose, fucose-phosphate and free fucose was carried out by passing the solution through a C18 cartridge (Alltech, Extract Clean, C18, 200 mg). The cartridge was washed with 5 ml of H2O, and the product was then eluted with 3 ml of 80% acetonitrile containing 0.052% TFA. The eluant was mixed with 10 ml Aquasol II (NEN/Du Pont) and counted using a liquid scintillation counter.
As described previously, all the O-fucosylation on EGF domains occur within the putative consensus sequence CXXGGSC (SEQ ID NO: 1) or alternatively CXXGGTC (SEQ ID NO: 21). […] Three mutants were constructed using alanine to replace either of the two or both glycine residues and tested as acceptor substrate for the purified O-fucosyltransferase. Assays using the four recombinant EGF domains all gave positive counts. It appeared that the two glycine residues were not absolutely required for activity.
In order to determine if all the different forms of the mutants served as substrate for the O-fucosyltransferase, reverse-phase HPLC online with electrospray mass spectrometry was used to analyze the product of the fucosylation reaction. Shown in FIG. 8 is the experiment using the mutant ala-ala. Analysis of the other tested mutants gave similar results. […] The enzyme O-fucosyltransferase required its substrate in order to have the proper three dimensional structure in order to function properly.

Substance | Fucose (cpm) | acceptor substrate for the O-fucosyltransferase (in words)
EGF (wild type): Recombinant human Factor IX EGF domain, wild type, sequence -CLNGGSC- (SEQ ID NO: 20) (KRYNSGKLEEFVQGNLERECMEEKCSFEEAREVFENTERTTEFHHHHHHGSA) | 12062 cpm | better substrate than the mutants
EGF.AA: Recombinant human Factor IX EGF domain mutant, sequence -CLNAASC- (SEQ ID NO: 17), both glycines replaced by alanine | 1818 cpm | only one of the four differently folded species served as an acceptor substrate
EGF.AG: Recombinant human Factor IX EGF domain mutant, sequence -CLNAGSC- (SEQ ID NO: 18) (KRYNSGKLEEFVQGNLERECMEEKCSFEEAREVFENTERTTEFHHHHHHGSA) | 4585 cpm | –
